Measured values taken from patent US12043671B2, “Antibodies targeting an amphiregulin-derived cell surface neo-epitope” (Gundersen Lutheran Medical Foundation, Inc., priority 2021, dated 2024).

Legend:
[1] = biological target: T1, cleaved Amphiregulin (Homo sapiens, UniProt P15514); assay: Immunohistochemistry on multiple organ carcinoma tissue microarrays
T1 construct: tissue BioCoreUSA; host or cells: multiple organ carcinoma tissue microarrays (ten tumour types)
T1 sequence (P15514 188-252): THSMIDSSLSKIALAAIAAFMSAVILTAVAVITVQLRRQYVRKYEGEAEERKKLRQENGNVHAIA
Procedure: Two multiple organ carcinoma tissue microarrays were purchased from BioCoreUSA (Philadelphia, PA, USA). The slides were deparaffinized in xylene and rehydrated by serial incubations in graded ethanol and then in water in a Histo-Tek® SL Slide Stainer (Sakura Finetek USA, Inc., Torrance, CA, USA). Antigen retrieval was performed in a steamer by boiling slides in a container of citrate buffer (pH 6.0) for 20 min which was then removed for 15 minutes of cooling on the benchtop. Slides were washed in 1× Wash buffer (Dako Agilent, Santa Clara, CA, USA) and endogenous peroxidase was quenched by incubating with Dako Dual Endogenous Enzyme Block for 10 minutes. Slides were washed in 1× Wash buffer, blocked (5% rabbit/10% goat serum in PBS), and immunostained with goat anti-AREG antibody (15 μg/mL; AF262, R&D Systems) or rabbit anti-cleaved AREG 1A3 antibody (10 μg/mL) overnight at 4° C. Slides were washed four times in 1× Wash buffer, followed by incubation for 45 minutes at room temperature in 1:100 dilution of rabbit anti-goat immunoglobulins/HRP or ready-to-use goat antirabbit HRP labelled polymer (Dako). […] The staining intensity was assessed semi-quantitatively using a four-point scale (Negative=0, Low=1, Medium=2, High=3) by two investigators working independently on blinded samples. […]

[2] = biological target: T2, Trunc AREG (fragment that remains cell-bound after cleavage by ADAM17) (Homo sapiens, UniProt P15514); assay: Immunoblot of TRF-conjugated AREG peptides, cleaved mimic; assay type: binding; settings: 1 μg/mL antibody, 200 ng TRF-conjugated peptide
T2 construct: host or cells: synthetic peptide conjugated to transferrin
Procedure: Monomethyl auristatin E (MMAE) conjugated 1A3 antibody (1A3-VC-PAB-MMAE) was prepared using a kit (CM11409) from CellMosaic Inc. (Woburn, MA, USA) following the manufacturer's instructions. Maleimide-activated valine-citrulline p-aminobenzylcarbamate (VCPAB) MMAE was coupled directly to the antibody after reduction through alkylation.^13 The specificity of 1A3 and 1A3-VC-PAB-MMAE to peptides representing human cleaved-AREG was confirmed by immunoblotting. Briefly, transferrin (TRF) conjugated peptides representing cleaved and uncleaved AREG (200 ng) were electrophoresed on SDS-PAGE gels, transferred to PVDF membrane and probed with 1 μg/mL of 1A3 and 1A3-VC-PAB-MMAE. Horseradish peroxidase-conjugated goat anti-rabbit IgG was used. Antibody binding was detected with enhanced chemiluminescence (ECL; Amersham, Arlington Heights, IL, USA). Furthermore, the characterization and purity of 1A3-VC-PAB-MMAE were analyzed using hydrophobic interaction chromatography (HIC) and size-exclusion chromatography (Cell Mosaic).

[3] = system: MCF7-F xenografts; assay: Orthotopic MCF7-F endocrine-resistant xenograft in NSG mice; assay type: in vivo, mouse
From the text: In Vivo Antitumor Activity Studies: The animal experiments were approved by the Institutional Animal Care and Use Committee of University of Wisconsin La Crosse (La Crosse, Wisconsin, USA). Four-week-old female NOD.Cg-Prkdc^scid II2rg^tm1Wjl/SzJ mice (NSG; The Jackson Laboratory) were acclimated for 1 week before the experiments. For MCF7 breast cancer xenograft model, the mice were implanted subcutaneously with 0.72-mg 17β-estradiol 90-day release tablets (Innovative Research of America) 3 days prior to cell injection. […] Firefly luciferase expressing MCF7 and MCF7-F cells (2×10^6 cells in a 1:1 mixture of serum-free DMEM and Matrigel) were injected orthotopically into the fourth inguinal mammary fat pad of each mouse. Once the tumors were well established, each cell line cohort was divided into three groups (n=5). Mean tumor volume at the start of treatment was 111 mm^3 for the MCF7 cohorts and 119 mm^3 for the MCF7-F cohorts. The mice were treated by intraperitoneal injection every 4 days for a total of six doses with unconjugated or MMAE conjugated anti-cleaved-AREG 1A3 antibody (5 mg/kg), or vehicle control (PBS). Tumor volumes were calculated from caliper data by using the formula: Volume (mm^3)=(Length×Width^2)/2. Mice were imaged weekly with the in vivo FX PRO imaging system (Carestream Molecular Imaging, Woodbridge, CA, USA) after injecting luciferin (150 mg/kg body weight). Tumor volume and body weight were monitored once a week. Statistical Analysis:
To test in vivo efficacy of 1A3-MMAE, human breast cancer cell lines expressing luciferase were injected orthotopically into NSG mice (one tumor in each inguinal mammary gland). Once the average tumor size reached approximately 100-125 mm^3, mice were randomized to one of three treatment groups: PBS, 1A3 (5 mg/kg) or 1A3-MMAE (5 mg/kg). Mice received intraperitoneal injections every 4 days for six total injections and were monitored for tumor progression or regression. Similar experiments were performed with MCF7 (FIGS. 5A, 5B, and 5C, left panels) and MCF7-F (FIGS. 5A, 5B, and 5C, right panels) xenografts.

B1: 1A3: Rabbit monoclonal IgG specific to cleaved AREG; VH SEQ ID NO: 3, VL SEQ ID NO: 4 (antibody, V domains shown)
VH: QSVKESEGRLVTPGTPLRLTCTVAGYSLSRYHMCWVRQAPGKGLEWIGMIGGSGRTDYASWAKGRFTISKTSTTVDLKITSPTTEDTATYFCSTVYTDSDGDFWGPGTLVTVSS
VL: AELDMTQTPSSKSVPVGGTVTINCQASESVYSNDRLAWFQQKPGQPPKLLIYYASTLASGVPSRFKGSGSGTQFTLTISDLECADAATYYCQSCYDMSSYGVAFGGGTELEIL
modifications: 1A3 antibody, Heavy chain; 1A3 antibody, Light chain
[1]; 370 evaluable cores, ten tumor types
  neoplastic cells negative for immunostaining: No neoplastic cells were negative
[1]; breast, prostate, liver and lung tumors
  tumors stained in the highest score for cleaved Amphiregulin: At least 50%
[2]
  recognition of truncated AREG peptide by immunoblot: specifically recognized
[3]; 5 mg/kg
  longitudinal luciferase imaging of xenografts: exhibited tumor growth
[3]; 5 mg/kg i.p. every 4 days, six doses
  tumor volume response by caliper measurements: continued, sometimes rapid increases in tumor volume
